Test results reported in article PMC5457685, “Pellino-1 promotes lung carcinogenesis via the stabilization of Slug and Snail through K63-mediated polyubiquitination” (Cell Death and Differentiation, 2016).

Target: T1, His-tagged Pellino-1 (human, UniProt Q96FA3 1-418)
T1 construct: Pellino-1, human; Pellino-1 FL subcloned into a His6-tagged fusion plasmid; The pull-down text names only 'His-Pellino-1'; also called His-Pellino-1; source: purified His-tagged protein
T1 sequence (looked up): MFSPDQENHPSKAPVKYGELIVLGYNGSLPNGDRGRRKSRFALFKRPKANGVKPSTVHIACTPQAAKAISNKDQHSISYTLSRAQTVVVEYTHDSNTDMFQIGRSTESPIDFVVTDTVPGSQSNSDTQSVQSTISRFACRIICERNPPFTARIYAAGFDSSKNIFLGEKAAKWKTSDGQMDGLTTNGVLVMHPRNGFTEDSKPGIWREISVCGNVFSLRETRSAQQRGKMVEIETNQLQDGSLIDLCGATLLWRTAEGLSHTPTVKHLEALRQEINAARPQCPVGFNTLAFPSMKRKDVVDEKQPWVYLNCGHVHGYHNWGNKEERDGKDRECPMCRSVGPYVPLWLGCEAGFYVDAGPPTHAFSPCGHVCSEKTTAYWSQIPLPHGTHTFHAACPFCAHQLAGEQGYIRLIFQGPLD
Experiment: pull-down; GST-Slug or GST-Snail adsorbed onto glutathione beads, incubated with purified His-tagged Pellino-1; bound proteins immunoblotted
Conditions: both partners purified

binding result: binds
B1: GST–Slug fusion protein (natural protein, human, UniProt O43623 1-268, looked up)
chain: MPRSFLVKKHFNASKKPNYSELDTHTVIISPYLYESYSMPVIPQPEILSSGAYSPITVWTTAAPFHAQLPNGLSPLSGYSSSLGRVSPPPPSDTSSKDHSGSESPISDEEERLQSKLSDPHAIEAEKFQCNLCNKTYSTFSGLAKHKQLHCDAQSRKSFSCKYCDKEYVSLGALKMHIRTHTLPCVCKICGKAFSRPWLLQGHIRTHTGEKPFSCPHCNRAFADRSNLRAHLQTHSDVKKYQCKNCSKTFSRMSLLHKHEESGCCVAH
notes: Slug, human; pGEX-KG vector encoding GST-tagged human Slug (gift); source: GST fusion protein (pGEX-KG vector) adsorbed onto glutathione beads
